From paper PMC8808565 (iScience, 2009) come the findings set out here.

The assay addresses SARS-CoV-2 (2019-nCoV) Spike RBD-His Recombinant Protein, Biotinylated (SARS-CoV-2, UniProt P0DTC2, biotin (biotinylated; site not stated)). Description: SPR. In general terms: SPR reads the build-up and loss of mass on a sensor chip optically.

By Kd is commonly meant the constant that tells how readily two partners part at equilibrium.

On to GIGDPVTCLKSGAICHPVFCPRRYKQIGTCGLPGTKCCKKP [Human beta defensin 2 (hBD-2), recombinant], for which the Kd was 1800 ± 1100 nM.
